For seven molecules, binding affinity and Tm results are on record in patent US20260199502A1, “BINDING MOLECULE” (priority 2022, published 2026).

Data set [1] deals with panel of 14 peptides (UU0024, UU0070-UU0078, UU0080-UU0083) comprising the tag moiety. Put plainly: SPR affinity of captured scFv against a peptide panel (Example 3). In kind it is binding. Particulars: SPR single cycle kinetics, peptides 0.16 nM to 100 nM; to most target peptides in the tested panel. The method, then:
Affinity measurements of the IBIIICI mouse scFv and IBIIICI CDR graft scFv variants obtained as described in Examples 1-2 were performed by SPR using a Biacore T200 instrument (GE Healthcare) and single cycle kinetics. Anti-FLAG M2 antibody (Sigma-Aldrich) was immobilized onto a Series S CM5 chip by primary amine coupling using NHS-EDC chemistry according to the manufacturer's instruction, allowing capture of the respective scFv through the FLAG tags provided by the expression vector. A 5-fold dilution series comprising of five concentrations (0.16 nM to 100 nM) of different peptides (Table 2) was sequentially injected over the flow cells, allowing binding to the captured scFv. Following a dissociation phase, regeneration of the surface was accomplished under acidic conditions using 10 mM glycine-HCl at pH 2.1. By subtracting the response curve of a surface having an anti-FLAG antibody immobilized thereto (the reference surface), response unit sensorgrams for all peptides were obtained. Data was analyzed using BIAeval v.3.1 (GE Healthcare).

Data set [2] can be described thus: Melting temperature (Tm) determination by nanoDSF. The class given is physicochemical. The settings on record: inflection point #1, 1.0 mg/ml in PBS, 20-95° C. at 1° C./min. The method, then:
In order to evaluate the stability of the purified scFv variants, the melting temperatures were determined by nanoDSF using a Prometheus NT.48 instrument (NanoTemper Inc). The nanoDSF technology measures the intrinsic fluorescence of a protein while it is being subjected to thermal denaturation, thereby characterizing the unfolding of the protein under native conditions.
The six purified IBIIICI CDR graft scFv variants were diluted to 1.0 mg/ml in PBS and loaded into a high sensitivity capillary (NanoTemper, #PR-C006) through capillary force. A melting temperature ramp was set to between 20° C. and 95° C., with heating at 1° C./min. Tryptophan emission was measured at 330 nm and 350 nm, and the calculated ratio was plotted against temperature to obtain melting curves for each variant. Tm values were deduced using the software PR ThermoControl (NanoTemper Inc).

B1: IBIIICI mouse scFv: known ancestral mouse scFv binding the peptide tag moiety, SEQ ID NO:25 (protein, listed as Mus musculus)
scFv: EVRLLQSGAALVRPGASVKLSCTASGFNIKDFNIHWVKQRPEQGLEWIGRIDPENGDAEYVPKFQVRATMTTDTSSNTVYLHLSSLTSGDTAVYYCTTGSYDLDVEYWGQGTTLTVSSGGGGSGGGGSGGGGSGGGGSELQMTQSPSSLSASLGDTVTITCHASQNINVWLSWYQQRPGNIPKLLIYKASTLHTGVPSRFRGSGSGTGFTLTISSLQPEDIATYYCQQGQSYPLTFGAGTKLELK
As for B1, in data set [1], the binding affinity entry is reported as “low nanomolar”.

B2: IBIIICI CDR graft scFv variant NG (wt): original humanized IBIIICI CDR graft scFv, SEQ ID NO:54, NG at positions 62-63 of VH (protein)
scFv: QVQLVQSGAEVKKPGASVKVSCKASGFNIKDFNIHWVRQAPGQGLEWIGRIDPENGDAEYVPKFQGRVTMTRDTSTSTVYMELSSLRSEDTAVYYCTTGSYDLDVEYWGQGTLVTVSSGGGGSGGGGSGGGGSGGGGSDIQMTQSPSSLSASVGDRVTITCHASQNINVWLSWYQQKPGKAPKLLIYKASTLHTGVPSRFSGSGSGTDFTLTISSLQPEDFATYYCQQGQSYPLTFGQGTKLEIK
On to B2, for which, in data set [2], the Tm turned out to be 63.4 °C. Besides, the binding affinity entry in data set [1] is given as “low nanomolar”.

B3: IBIIICI CDR graft scFv variant SG: humanized scFv point mutated variant, SEQ ID NO:49 (protein)
scFv: QVQLVQSGAEVKKPGASVKVSCKASGFNIKDFNIHWVRQAPGQGLEWIGRIDPESGDAEYVPKFQGRVTMTRDTSTSTVYMELSSLRSEDTAVYYCTTGSYDLDVEYWGQGTLVTVSSGGGGSGGGGSGGGGSGGGGSDIQMTQSPSSLSASVGDRVTITCHASQNINVWLSWYQQKPGKAPKLLIYKASTLHTGVPSRFSGSGSGTDFTLTISSLQPEDFATYYCQQGQSYPLTFGQGTKLEIK
For B3, the midpoint of thermal melting (Tm) in data set [2] stood at 64.3 °C; in data set [2] (listed as IBIIICI CDR graft scFv SG), 64 °C.

B4: IBIIICI CDR graft scFv variant DG: humanized scFv point mutated variant, SEQ ID NO:52 (protein)
scFv: QVQLVQSGAEVKKPGASVKVSCKASGFNIKDFNIHWVRQAPGQGLEWIGRIDPEDGDAEYVPKFQGRVTMTRDTSTSTVYMELSSLRSEDTAVYYCTTGSYDLDVEYWGQGTLVTVSSGGGGSGGGGSGGGGSGGGGSDIQMTQSPSSLSASVGDRVTITCHASQNINVWLSWYQQKPGKAPKLLIYKASTLHTGVPSRFSGSGSGTDFTLTISSLQPEDFATYYCQQGQSYPLTFGQGTKLEIK
With B4, the Tm in data set [2] was 62.4 °C.

B5: IBIIICI CDR graft scFv variant QG: humanized scFv point mutated variant, SEQ ID NO:51 (protein)
scFv: QVQLVQSGAEVKKPGASVKVSCKASGFNIKDFNIHWVRQAPGQGLEWIGRIDPEQGDAEYVPKFQGRVTMTRDTSTSTVYMELSSLRSEDTAVYYCTTGSYDLDVEYWGQGTLVTVSSGGGGSGGGGSGGGGSGGGGSDIQMTQSPSSLSASVGDRVTITCHASQNINVWLSWYQQKPGKAPKLLIYKASTLHTGVPSRFSGSGSGTDFTLTISSLQPEDFATYYCQQGQSYPLTFGQGTKLEIK
Consider B5, for which the melting temperature (Tm) in data set [2] turned out to be 62.2 °C.

B6: IBIIICI CDR graft scFv variant NA: humanized scFv point mutated variant, SEQ ID NO:53 (protein)
scFv: QVQLVQSGAEVKKPGASVKVSCKASGFNIKDFNIHWVRQAPGQGLEWIGRIDPENADAEYVPKFQGRVTMTRDTSTSTVYMELSSLRSEDTAVYYCTTGSYDLDVEYWGQGTLVTVSSGGGGSGGGGSGGGGSGGGGSDIQMTQSPSSLSASVGDRVTITCHASQNINVWLSWYQQKPGKAPKLLIYKASTLHTGVPSRFSGSGSGTDFTLTISSLQPEDFATYYCQQGQSYPLTFGQGTKLEIK
Consider B6, for which the midpoint of thermal melting (Tm) was determined as 60.8 °C in data set [2] and 61 °C in data set [2] (listed as IBIIICI CDR graft scFv NA).

B7: IBIIICI CDR graft scFv variant GG: humanized scFv point mutated variant, SEQ ID NO:50 (protein)
scFv: QVQLVQSGAEVKKPGASVKVSCKASGFNIKDFNIHWVRQAPGQGLEWIGRIDPEGGDAEYVPKFQGRVTMTRDTSTSTVYMELSSLRSEDTAVYYCTTGSYDLDVEYWGQGTLVTVSSGGGGSGGGGSGGGGSGGGGSDIQMTQSPSSLSASVGDRVTITCHASQNINVWLSWYQQKPGKAPKLLIYKASTLHTGVPSRFSGSGSGTDFTLTISSLQPEDFATYYCQQGQSYPLTFGQGTKLEIK
B7: the Tm in data set [2] was 62.6 °C.
